Test system: MS2 coat protein
Assay: apparent KD of MS2 coat protein; designed switch direction (-1 OFF switch, 1 ON switch): -1; higher = weaker reporter binding
In short: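 Transcription of designed RNA switches on Illumina chips was done by stalled E. coli RNA polymerase. SNAP-549-labelled MS2 coat protein was then titrated in doubling steps from 0.7 or 1.5 nM to 3 µM, with steps of 0.8–1.5 h at the lowest and 10–20 min at the highest concentration. The per-design median over clusters of curve-fitted normalised fluorescence is reported as apparent KD.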

[1] = input ligand: microRNA oligo, concentration not stated
[2] = Eterna round: R95, input ligand: FMN 200 uM
[3] = Eterna round: R95, input ligand: microRNA oligo, concentration not stated
[4] = Eterna round: R95, input ligand: none

Sequence | apparent KD of MS2 coat protein (input ligand: FMN 200 uM) [nM] | apparent KD of MS2 coat protein [1] [nM] | apparent KD of MS2 coat protein (input ligand: none) [nM] | apparent KD of MS2 coat protein [2] [nM] | apparent KD of MS2 coat protein [3] [nM] | apparent KD of MS2 coat protein [4] [nM]
GAUACACGUUCAGGAUAUCGCGCCCAAUUACACCUCUUCCGACGGACAUGAGGAUCACCCAUGUGCGAGAAGGGAACCAAAACU [Orquonbedi] (Eterna round: R96, puzzle: Exclusion NG 2) | 13.6 | 13.2 | 17.4 | – | – | –
CUGAUGUUAGGAUAUCAGGUCACGCGCGAAGGCGCGCGGCAUGAGAAGGAACAUGAGGAUCACCCAUGUGACGA [Reisquso] (Eterna round: R96, puzzle: Exclusion 4) | 305 | 29.6 | 43.3 | – | – | –
AAAUAACAAGCAAGAUCCUACAUGAGGAUCACCCAUGUGCUCGUCUUGUAAAGUACUAUCACGAAAGUGAUAGUACA [Sensor 3, v1 - 12] (puzzle: Sensor v3, turn-off variant 1) | – | – | – | 23.4 | 219 | 23
AACUGUGAGGCAGGAUAUGAAGCAUGGGCCGCGUGAUAAUACAUGAGGAUCACCCAUGUAGGGAUUCAGAAGGGCCCAGAGCAC [Atusveer] (Eterna round: R96, puzzle: Exclusion NG 2) | 20.4 | 11.5 | 18.2 | – | – | –
CACCGUUAACUAGGAUAUCGUACAUGAGGAUCACCCAUGUAAUAAAUGAGAAUUUCGGAUGUAUGCGAGAAGGAGUAAAUCGGC [Ostricism 46 - Jieux - Exclusion NG 2] (Eterna round: R96, puzzle: Exclusion NG 2) | 40.8 | 27.6 | 37.3 | – | – | –
AGCAGGCAUUCCUCUGGACACAUGAGGAUCACCCAUGUUCGUCGCUCGCAGCGUUGAGGCAUUACCCUUAACGCUUU [Eternabot (Original) Solution 29] (Eterna round: R97, puzzle: Sensor, turn-off variant 1) | 52.5 | – | 48.8 | – | – | –
AGUAGUAGUAUCCGAUCCUACAUGAGGAUCACCCAUGUAGCUAGACGUGCACGCGAUGCUCGUCAGACUACCAGAUG [salish99_TOv1_r3_033] (puzzle: Sensor v3, turn-off variant 1) | – | – | – | 195 | 184 | 253
GGCGGGACAGGAUAUCUAGCACUAAACAUGAGGAUCACCCAUGUGGUGGUCGCAGGUGUCAGAGAAGGGUCAAAAG [Atenabe] (puzzle: Exclusion 5) | – | – | – | 193 | 616 | 1480
UACACCACAUGAGGAUCAAACAUGAGGAUCACCCAUGUGUAGCAAGCUUUUUGCUCGUCUUAUAAAUAUGUGGUGUA [Electric Eye 7 - Jieux - Sensor, turn-off variant 1] (Eterna round: R97, puzzle: Sensor, turn-off variant 1) | 11.7 | – | 11.9 | – | – | –
CUUUCGUGAGGAUAUCAGUAGUAAUAAUAUAAAAUUACUACUGAGAAGGCACAUGAGGAUCACCCAUGUUCCUC [salish99_ex3_r3_101] (puzzle: Exclusion 4) | – | – | – | – | 23.7 | –
UAUCGGCGGACCGAGGCUUUUUGCUCGUCUUAUGCUACAACAUGAGGAUCACCCAUGUGGUGGUGGUCCGUUGUAGU [JL ViennaUCT Bitein mod 9] (puzzle: Sensor v3, turn-off variant 2) | – | – | – | 19.7 | 13.5 | 31.8
GAUGAGGUAGGAUAUACGAUAAUAUAGGGUAGAUAUAUAACACAUGAGGAUCACCCAUGUAGAAGGACCAGUAG [Mat - Exclusion 2 - Mod of my Tesla design - D66] (puzzle: Exclusion 2) | – | – | – | – | 33.4 | –
GCUUGUGGGCAAGGAUAUCCUGCGCUGUUCUGGUUCGUGUCUGUCACAUGAGGAUCACCCAUGUGGGAGAAGGUGCCUGUGGCG [Design 66] (Eterna round: R96, puzzle: Exclusion NG 2) | 22 | 17.4 | 24.2 | – | – | –
GGAUAAAACUGAGGAUAUGAGGAGAGAGAGAGAUCAGAAGGCAGACAUGAGGAUCACCCAUGUGAGUUCUCGAUAAGAAACACG [Prohibition 56 - Jieux - Exclusion NG 1] (Eterna round: R96, puzzle: Exclusion NG 1) | 58.9 | 30.7 | 38.3 | – | – | –
CGGUGUAACACAGGAUAUCAUCGCAACUGACGUUGAGAAGGGUGACAUGAGGAUCACCCAUGUGAUUUCUCAAUAUUAUACAUC [Prohibition 83 - Jieux - Exclusion NG 1] (Eterna round: R96, puzzle: Exclusion NG 1) | 508 | 481 | 629 | – | – | –
UACCUGAGGCAAAGCUUUAGGUAUACAUGAGGAUCACCCAUGUAGGAUAUGGUAGGCUUUGCUUACCAGAAGGACAUGUUAAUU [Mat - Exclusion NG 3 - Mod of JL - D32] (Eterna round: R96, puzzle: Exclusion NG 3) | 161 | 30.4 | 39.6 | – | – | –

Sequence | apparent KD of MS2 coat protein (input ligand: FMN 200 uM) [nM] | apparent KD of MS2 coat protein [1] [nM] | apparent KD of MS2 coat protein (input ligand: none) [nM] | apparent KD of MS2 coat protein [2] [nM] | apparent KD of MS2 coat protein [3] [nM] | apparent KD of MS2 coat protein [4] [nM]
AAGAAGAAGUAAGGAUAUGAAGAUCUGGUGGUGACAUGAGGAUCACCCAUGUGAAAACGAUGAGAUCAGAAGGUAUAAGAAGAA [AK ExNG2-3.3] (Eterna round: R96, puzzle: Exclusion NG 2) | 116 | 59.9 | 89.4 | – | – | –
AGUACUUACACGAAAGUGUAAGUACAAUAAGCUUGUGGAACAUGAGGAUCACCCAUGUCCUCAUAAGCUCGUCUUAU [Mat - Sensor v3 - Turn-off var 2 - D28] (puzzle: Sensor v3, turn-off variant 2) | – | – | – | 14.5 | 75.2 | 14.3
GCUUUAUGCUCGUUAUAACACAUGAGGAUCACCCAUGUUCGGGCUUACGAGUCGUUCUGAAUGUGACCCUGCAUGAG [Eternabot (L2) Solution 47] (Eterna round: R97, puzzle: Sensor, turn-off variant 1) | 200 | – | 193 | – | – | –
UGUUGUCGCGUAGGAUAUGGCCAACAGGCCCUAGGAUAUCGGAAACGAGAAGGAGCGCCAACAGGCGAGAAGGACGGGACAACU [pwkr exNG2 2xF7 2xFMN.20] (Eterna round: R96, puzzle: Exclusion NG 2) | 33 | 52.7 | 10.7 | – | – | –
AUUAUGUUAGGAUAUGCUUAUGGUGGAUAAUCGGAUAUGAUGCAGAAGGGACAUGAGGAUCACCCAUGUACUGA [EX4 #24] (Eterna round: R97, puzzle: Exclusion 4) | 22.3 | – | 22.7 | – | – | –
UAACUACAUGAGGAUCACCCAUGUCAGGAUAUGCCGUUAAAUUAACAUCAACAUACGGGUAGAAGGGACAACGU [1st #3] (Eterna round: R97, puzzle: Exclusion 1) | 31.5 | – | 29.8 | – | – | –
GGAUUGCGGCAAGGAUAUCUUUGUCAACAUAAAACAUGAGGAUCACCCAUGUGCAUCUUCGUGUGAGAGAAGGUGCGGCGAUCC [Geceretima] (Eterna round: R96, puzzle: Exclusion NG 2) | 1620 | 248 | 180 | – | – | –
CUGUACUGAGGAUAUACAUGAGGAUCACCCAUGUUCUUCGGCUAGGAAACUAGCAAAGGUAGAAGGCAGUACAG [Mat - Exclusion 3 - Eli Mod - D68] (Eterna round: R97, puzzle: Exclusion 3) | 234 | – | 15.1 | – | – | –
UCGCUGCGAGGAUAUACGUGCGCGCGCUCGCGUUCGCGCGUACAUGAGGAUCACCCAUGUAGAAGGCGCGCUGC [Apr-15 SS2-5] (puzzle: Exclusion 2) | – | – | – | – | 11.1 | –
GGUGCGUAUGUGAGGAUAUGCUGGUCCUUGGCUCGGCAGAAGGCACAUGAGGAUCACCCAUGUGGUGUCGUACC [salish99_Bmod_ex4_054] (puzzle: Brourd's mod of Exclusion 4) | – | – | – | – | 141 | –
ACACUGCGAGGAUAUACAUGAGGAUCACCCAUGUUUCGGUAGACAAGGUUAAUUUAAGGUAGAAGGCGCGUAUU [JR_Ex3_Sub009] (Eterna round: R97, puzzle: Exclusion 3) | 173 | – | 40.2 | – | – | –
UUGAAGUCAGGAUAUCGUUAAUUUAGUUGUUUGUAUUAGUUCGAGAAGGGACAUGAGGAUCACCCAUGUAAGUA [Ex4 #47] (Eterna round: R97, puzzle: Exclusion 4) | 32.7 | – | 40.5 | – | – | –
CGUAGACAUGAGGAUCACCCAUGUGAGGAUAUGCUUUUUUAUUAGAAAUGGUGGAGGAGCAGAAGGCACGUGCG [-21.6, -21.5 kcal, 28% A] (Eterna round: R97, puzzle: Exclusion 1) | 160 | – | 59.7 | – | – | –
AGUGCUGCAGGAUAUUCUAUUAAUUACAUGAGGAUCACCCAUGUGAAUGGACAAGGGUGUGAAGAAGGGUGGUACG [Omei Ex5 A17i] (Eterna round: R97, puzzle: Exclusion 5) | 262 | – | 496 | – | – | –
GCACGGAUGGUAGGAUAUCAGUGCGAUUAGCUCUGAGAAGGACCACAUGAGGAUCACCCAUGUACCUCAAUUAUCCUUCCGUGC [Eli exng1 - 022] (Eterna round: R96, puzzle: Exclusion NG 1) | 13.8 | 11.3 | 17.7 | – | – | –
CAUGAUUGGCGAGGAUAUUGAUCUAGUUGGCGACGAGAAGGCGCCUGUCACAUGAGGAUCACCCAUGUGAAUCUGGUGAAAGAG [Ex NG1 #89] (Eterna round: R96, puzzle: Exclusion NG 1) | 24.9 | 18.5 | 25.9 | – | – | –
